Paper PMC6959147 (BioMed Research International, 2019)

B1: scFv-yeast clone 3_3 (scFv, V domains shown)
VH: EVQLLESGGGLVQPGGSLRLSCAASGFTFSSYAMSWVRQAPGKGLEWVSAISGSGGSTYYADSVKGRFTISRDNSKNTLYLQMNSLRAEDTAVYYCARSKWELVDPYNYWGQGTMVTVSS
VL: NFMLTQPHSVSESPGKTITISCTRSSGSIAGNYVQWYQQRPGSAPIIVIYEDNQRPSGVPDRFSGSIDSSSNSASLTISRLKTEDEADYYCQSYEASNVVFGGGTKLTVL
notes: as the stretch N-terminal of the HCDR3 of m4; HCDR3 of clone 3_3 (same as 10_4); as the stretch C-terminal of the HCDR3 of m4; also called 10_4; not shown: HA, C-terminal, kept
B2: scFv-yeast clone 10_3 (scFv, V domains shown)
VH: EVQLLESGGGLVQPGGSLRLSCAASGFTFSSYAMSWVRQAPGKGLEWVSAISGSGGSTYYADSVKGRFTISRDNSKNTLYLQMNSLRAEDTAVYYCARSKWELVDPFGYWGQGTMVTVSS
VL: B1 VL
notes: as the stretch N-terminal of the HCDR3 of m4; HCDR3 of clone 10_3; as the stretch C-terminal of the HCDR3 of m4; not shown: HA, C-terminal, kept
B3: scFv-yeast clone 3_14 (scFv, V domains shown)
VH: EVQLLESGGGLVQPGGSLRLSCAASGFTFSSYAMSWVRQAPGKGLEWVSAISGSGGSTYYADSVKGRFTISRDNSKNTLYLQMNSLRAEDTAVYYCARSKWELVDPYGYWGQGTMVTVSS
VL: B1 VL
notes: as the stretch N-terminal of the HCDR3 of m4; HCDR3 of clone 3_14 (same as 10_2); as the stretch C-terminal of the HCDR3 of m4; also called 10_2; not shown: HA, C-terminal, kept
B4: scFv-yeast clone 3_7 (scFv, V domains shown)
VH: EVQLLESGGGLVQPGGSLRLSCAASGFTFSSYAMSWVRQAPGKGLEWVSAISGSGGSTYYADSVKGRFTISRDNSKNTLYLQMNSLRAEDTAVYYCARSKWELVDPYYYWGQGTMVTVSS
VL: B1 VL
notes: as the stretch N-terminal of the HCDR3 of m4; HCDR3 of clone 3_7; as the stretch C-terminal of the HCDR3 of m4; not shown: HA, C-terminal, kept
B5: scFv-yeast clone 10_12 (scFv, V domains shown)
VH: not shown
VL: B1 VL
notes: as the stretch N-terminal of the HCDR3 of m4; HCDR3 of clone 10_12; as the stretch C-terminal of the HCDR3 of m4; not shown: HA, C-terminal, kept
B6: scFv-yeast clone 3_17 (scFv, V domains shown)
VH: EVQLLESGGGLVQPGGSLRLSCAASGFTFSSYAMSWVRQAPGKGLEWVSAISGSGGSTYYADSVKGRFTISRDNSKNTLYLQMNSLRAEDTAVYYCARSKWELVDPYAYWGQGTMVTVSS
VL: B1 VL
notes: as the stretch N-terminal of the HCDR3 of m4; HCDR3 of clone 3_17; as the stretch C-terminal of the HCDR3 of m4; not shown: HA, C-terminal, kept
B7: mAb 3_3 (IgG4 converted from scFv 3_3) (antibody, V domains shown)
VH: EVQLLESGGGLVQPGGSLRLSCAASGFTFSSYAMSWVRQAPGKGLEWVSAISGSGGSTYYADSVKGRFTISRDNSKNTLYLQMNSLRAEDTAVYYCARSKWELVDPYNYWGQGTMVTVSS
VL: B1 VL
notes: as the VH stretch before the HCDR3 of m14; HCDR3 of 3_3; T to S at position 1 and D to N at position 10 against the wild type; as the VH stretch after the HCDR3 of m14; as the light chain of m14; IgG4; also called IgG 3_3; source: EBNA 293 cells, cotransfected (pEU8.2 and pEU4.2), purified from the medium (protein A); copies: 2 + 2
B8: mAb 3_17 (IgG4 converted from scFv 3_17) (antibody, V domains shown)
VH: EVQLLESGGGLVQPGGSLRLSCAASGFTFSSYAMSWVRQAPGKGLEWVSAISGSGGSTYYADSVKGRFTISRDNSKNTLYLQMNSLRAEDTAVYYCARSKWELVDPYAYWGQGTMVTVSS
VL: B1 VL
notes: as the VH stretch before the HCDR3 of m14; HCDR3 of 3_17; T to S at position 1 and D to A at position 10 against the wild type; as the VH stretch after the HCDR3 of m14; as the light chain of m14; IgG4; also called IgG 3_17; source: EBNA 293 cells, cotransfected (pEU8.2 and pEU4.2), purified from the medium (protein A); copies: 2 + 2
B9: mAb 3_14 (IgG4 converted from scFv 3_14) (antibody, V domains shown)
VH: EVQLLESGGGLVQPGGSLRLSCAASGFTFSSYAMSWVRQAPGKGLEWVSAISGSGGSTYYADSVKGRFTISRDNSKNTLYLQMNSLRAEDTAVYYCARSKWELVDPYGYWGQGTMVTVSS
VL: B1 VL
notes: as the VH stretch before the HCDR3 of m14; HCDR3 of 3_14; T to S at position 1 and D to G at position 10 against the wild type; as the VH stretch after the HCDR3 of m14; as the light chain of m14; IgG4; also called IgG 3_14; source: EBNA 293 cells, cotransfected (pEU8.2 and pEU4.2), purified from the medium (protein A); copies: 2 + 2
B10: mAb 3_7 (IgG4 converted from scFv 3_7) (antibody, V domains shown)
VH: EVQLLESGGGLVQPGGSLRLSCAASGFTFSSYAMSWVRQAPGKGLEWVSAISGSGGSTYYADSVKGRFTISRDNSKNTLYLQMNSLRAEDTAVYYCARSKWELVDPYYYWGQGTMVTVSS
VL: B1 VL
notes: as the VH stretch before the HCDR3 of m14; HCDR3 of 3_7; T to S at position 1 and D to Y at position 10 against the wild type; as the VH stretch after the HCDR3 of m14; as the light chain of m14; IgG4; also called IgG 3_7; source: EBNA 293 cells, cotransfected (pEU8.2 and pEU4.2), purified from the medium (protein A); copies: 2 + 2
B11: mAb 10_3 (IgG4 converted from scFv 10_3) (antibody, V domains shown)
VH: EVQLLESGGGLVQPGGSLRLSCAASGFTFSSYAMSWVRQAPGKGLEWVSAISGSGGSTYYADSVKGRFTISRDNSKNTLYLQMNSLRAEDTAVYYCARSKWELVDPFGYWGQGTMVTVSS
VL: B1 VL
notes: as the VH stretch before the HCDR3 of m14; HCDR3 of 10_3; T to S at position 1, Y to F at position 9 and D to G at position 10 against the wild type; as the VH stretch after the HCDR3 of m14; as the light chain of m14; IgG4; also called IgG 10_3; antibody 10_3; source: EBNA 293 cells, cotransfected (pEU8.2 and pEU4.2), purified from the medium (protein A); copies: 2 + 2

Target: T1, recombinant human PD-L1, Fc-tagged (rhPD-L1-Fc) (Homo sapiens, UniProt Q9NZQ7)
T1 construct: human PD-L1 (programmed death ligand-1) extracellular domain, linked to the Fc region of human IgG1; soluble disulfide-linked homodimer; also called dimeric rhPD-L1-Fc; dimeric PD-L1; source: bought: R&D Systems
Test: flow cytometry on cells; scFv displayed on yeast, titration with rhPD-L1-Fc (10 pM to 10 nM plus 30 nM), PBS 0.5% BSA, room temperature; binding MFI normalised on scFv expression; apparent KD = half-saturating antigen concentration
Settings: one partner purified

T1 sequence (Q9NZQ7 19-238): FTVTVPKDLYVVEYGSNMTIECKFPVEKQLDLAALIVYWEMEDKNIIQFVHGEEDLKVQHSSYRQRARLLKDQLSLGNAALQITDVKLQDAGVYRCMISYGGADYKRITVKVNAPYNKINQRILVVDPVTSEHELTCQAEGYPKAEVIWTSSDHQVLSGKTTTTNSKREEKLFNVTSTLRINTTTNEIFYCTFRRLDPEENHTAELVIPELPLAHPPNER

| Kd [pM] | Binder |
| --- | --- |
| < 1000 | B1 |
| < 1000 | B2 |
| < 1000 | B3 |
| < 1000 | B4 |
| < 1000 | B5 |
| < 1000 | B6 |

Target: T1, recombinant human PD-L1, Fc-tagged …
Test: SPR; Biacore X100, 25°C, HBS-EP pH 7.4; dimeric rhPD-L1-Fc (300 RU) immobilised by amine coupling on CM5, IgG as analyte (12.5-0.39 nM wild type, 6.25-0.39 nM mutated mAbs); 1:1 Langmuir; apparent constants (KD2) of bivalent binding
Settings: both partners purified

| Kd [pM] | koff [s⁻¹] | kon [M⁻¹ s⁻¹] | Binder |
| --- | --- | --- | --- |
| 174 | 0.000193 | 1.14e+06 | B7 |
| 165 | 0.000159 | 1.01e+06 | B8 |
| 172 | 0.000176 | 1.05e+06 | B9 |
| 287 | 0.000287 | 1.03e+06 | B10 |
| 139 | 0.000148 | 1.1e+06 | B11 |
